Experimental data from PMC8144572.

Target: truncated NpSRII/NpHtrII137 complex (Natronomonas pharaonis) (UniProt P42196)
Test: SAXS; detergent-solubilised (DDM) complex, peak fractions after gel filtration; low salt (150 mM NaCl); 0.57 mg/ml full-length and 0.78 mg/ml truncated complex; BM29 (ESRF); curves fitted with atomistic dimer models with a detergent belt (MEMPROT, CRYSOL3)

Sequence of truncated NpSRII/NpHtrII137 complex (P42196 whole entry, the tested form may be a part): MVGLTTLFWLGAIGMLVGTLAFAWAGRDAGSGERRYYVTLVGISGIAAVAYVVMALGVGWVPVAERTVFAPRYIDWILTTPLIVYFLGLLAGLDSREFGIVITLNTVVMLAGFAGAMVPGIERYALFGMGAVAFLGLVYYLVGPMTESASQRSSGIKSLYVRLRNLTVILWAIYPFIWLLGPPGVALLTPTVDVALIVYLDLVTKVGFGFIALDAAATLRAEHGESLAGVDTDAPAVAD
Sequence of truncated NpSRII/NpHtrII137 complex (P42259 1-136): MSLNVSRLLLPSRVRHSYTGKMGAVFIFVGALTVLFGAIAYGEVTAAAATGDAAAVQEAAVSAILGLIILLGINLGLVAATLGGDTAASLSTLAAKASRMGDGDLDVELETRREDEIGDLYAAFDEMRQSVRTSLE

With “truncated NpSRII/NpHtrII137 complex (from UniProt P42196 1-239; P42259 1-136)” the stoichiometry N was 2.
